In the supplement of paper PMC11865577:

Key:
Assay in all cases: pull-down binding Z-score (relative to library population); higher = stronger binding
[1] = system: G-clamp-N3 (biotin conjugate); details: RNA library: Library-1 (pre-miRNA loops + repeats)
Procedure, shortened: (§1)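 Streptavidin beads with 100 pmol of biotin-conjugated small molecule were incubated for 60 min at 25 °C with 1 μg of heat-folded Cy5- or Cy3-end-labelled RNA library in phosphate/NaCl/KCl buffer. Bound RNA was eluted in hot SDS after three washes and hybridised to a DNA barcode microarray at 55.5 °C for 20 h. Each binding score is a library-referenced Z-score, computed after beads-only subtraction and a trimmed mean of barcoded replicate probes.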

[2] = system: TO-3-N3 (biotin conjugate); details: RNA library: Library-2
Procedure, shortened: as §1

[3] = system: TO-3-N3-2 (biotin conjugate); details: RNA library: Library-2
Procedure, shortened: as §1

TO-N3 (biotin conjugate) = details: RNA library: Library-2
Procedure, shortened: as §1

[4] = system: TO-N3-2 (biotin conjugate); details: RNA library: Library-2
Procedure, shortened: as §1

Sequence | pull-down binding Z-score [1] | pull-down binding Z-score [2] | pull-down binding Z-score [3] | pull-down binding Z-score (TO-N3 (biotin conjugate)) | pull-down binding Z-score [4]
UUUUCUUAAAUUGUAUAAAGAGAAAU [hsa-mir-944] | -0.343 | -0.406 | -0.156 | -0.741 | -0.622
UUUUGAAAGUAACUUGGCGAAA [hsa-mir-548ad] | 1.69 | -0.179 | -0.118 | -0.0602 | -0.299
UUUUGACAUUACUUUCAAAGACAAAA [hsa-mir-548f-1] | -1.58 | -0.771 | -0.214 | -1.09 | -1.23
UUUUGCAAUUUUUUAAUGACAAAA [hsa-mir-548t] | -0.195 | -0.494 | -0.334 | -0.585 | -0.704
UUUUGCAGUUGAAAGUAAUGGCAAAG [hsa-mir-548ao] | 2.64 | -0.235 | 0.00731 | -0.0635 | 0.259
UUUUGCAGUUUUUUUAAGUAAUUGCAAAA [hsa-mir-548f-3] | 0.0351 | -0.492 | -0.385 | -0.812 | -0.904
UUUUGCAUUUAAAGUAAUGGCCAAA [hsa-mir-548ay] | 2.31 | -0.735 | -0.285 | -0.77 | -0.173
UUUUGCCAUUAAAAGUAAUGACAAAA [hsa-mir-548f-4] | -0.841 | -0.924 | -0.56 | -1.47 | -1.66
UUUUGCCAUUACUUUCAAUGGCAAAA [hsa-mir-548aa-2] | -0.284 | 0.127 | -0.23 | -0.176 | -1.08
UUUUGCCAUUACUUUUACAGGCAAAA [hsa-mir-548aa-1] | -0.445 | -0.497 | -0.412 | -0.991 | -1.28
UUUUGCUAUUACUUUUAAAGGCAAAA [hsa-mir-548e] | -0.666 | 0.431 | 0.21 | -0.0747 | -0.684
UUUUGCUGUUACUUUUAAUGGCAAAA [hsa-mir-548az] | -0.982 | -0.418 | -0.34 | -0.752 | -1.3
UUUUGCUUGUGUCUCUCCGCUCUGAGCAAUC [hsa-mir-96] | -0.253 | 0.441 | -0.0864 | 0.528 | 0.411
UUUUGUCUGA [hsa-mir-553] | -1.4 | -0.414 | -0.242 | -0.549 | -0.491
UUUUUCCAUUGUAAGUAAUGGGAAAA [hsa-mir-548f-5] | 0.457 | -0.644 | -0.567 | -0.991 | -1.67
UUUUUCUUUACUUUUAAUGGCAAA [hsa-mir-548u] | 0.72 | -1.03 | -0.338 | -1.35 | -1.2
UUUUUGCAUUACGUUCUAUGGCAAAA [hsa-mir-548g] | 1.18 | -0.297 | -0.00229 | -0.182 | -0.0583
UUUUUGUUUUUGAGACAGAGU [hsa-mir-4472-2] | -0.943 | 0.455 | 0.0401 | 0.274 | -0.803
UUUUUUUCCAAUGAAAAUAACGAAACCUGUUAUUUCCCAUUGAGGGGGAAAAA [hsa-mir-4484] | 0.398 | -1.12 | -0.221 | -1.15 | -0.641
UUUUUUUCGCUUUAUUUGUGACGAAAC [hsa-mir-543] | -0.305 | -0.674 | -0.278 | -0.856 | -0.882
